Results as given in EP1410040B1.

B1: His-tagged NCoA-1 aa 212-463 (protein)
chain: MHHHHHHSSGLVPRGSGMKETAAAKFERQHMDSPDLGTDDDDKAMGYLWIQEACQRYEVMQCFTVSQPKSIQEDGEDFQSCLICIARRLPRPPAITGVESFMTKQDTTGKIISIDTSSLRAAGRTGWEDLVRKCIYAFFQPQGREPSYARQLFQEVMTRGTASSPSYRFILNDGTMLSAHTKCKLCYPQSPDMQPFIMGIHIIDREHSGLSPQDDSNSGMSIPRINPSVNPGISPAHGVTRSSTLPPSNNNMVSARVNRQQSSDLNSSSSHTNSSNNQGNFGCSPGNQIVANVALNQGQAGSLEHHHHHH

Assays:
[1] = molecular target: full length STAT6 (human) (UniProt P42226); assay: cell-based or functional assay
[2] = molecular target: GST-STAT6 aa 677-847 protein (human); assay: ELISA: 500 ng GST-STAT6 (677-847) coated, 250 ng His-NCoA-1 added, detected by Penta-His and anti-mouse-HRP; average of three experiments, s.d. 0,036
GST-STAT6 aa 677-847 protein (human), sequence (chain, as listed by the source limits assumed): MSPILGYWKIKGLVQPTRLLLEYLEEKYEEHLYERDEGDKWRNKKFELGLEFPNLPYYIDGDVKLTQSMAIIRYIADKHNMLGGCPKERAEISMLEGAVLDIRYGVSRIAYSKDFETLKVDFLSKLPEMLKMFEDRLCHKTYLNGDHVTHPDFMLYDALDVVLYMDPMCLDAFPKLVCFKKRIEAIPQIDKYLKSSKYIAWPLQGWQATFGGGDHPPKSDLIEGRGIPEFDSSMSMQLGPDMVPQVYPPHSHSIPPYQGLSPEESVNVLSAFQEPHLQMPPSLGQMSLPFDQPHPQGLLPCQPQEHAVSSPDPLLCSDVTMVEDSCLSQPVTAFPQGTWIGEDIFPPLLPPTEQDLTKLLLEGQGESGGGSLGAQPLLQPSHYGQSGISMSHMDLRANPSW

UniProt P42226, sequence (P42226 2-847): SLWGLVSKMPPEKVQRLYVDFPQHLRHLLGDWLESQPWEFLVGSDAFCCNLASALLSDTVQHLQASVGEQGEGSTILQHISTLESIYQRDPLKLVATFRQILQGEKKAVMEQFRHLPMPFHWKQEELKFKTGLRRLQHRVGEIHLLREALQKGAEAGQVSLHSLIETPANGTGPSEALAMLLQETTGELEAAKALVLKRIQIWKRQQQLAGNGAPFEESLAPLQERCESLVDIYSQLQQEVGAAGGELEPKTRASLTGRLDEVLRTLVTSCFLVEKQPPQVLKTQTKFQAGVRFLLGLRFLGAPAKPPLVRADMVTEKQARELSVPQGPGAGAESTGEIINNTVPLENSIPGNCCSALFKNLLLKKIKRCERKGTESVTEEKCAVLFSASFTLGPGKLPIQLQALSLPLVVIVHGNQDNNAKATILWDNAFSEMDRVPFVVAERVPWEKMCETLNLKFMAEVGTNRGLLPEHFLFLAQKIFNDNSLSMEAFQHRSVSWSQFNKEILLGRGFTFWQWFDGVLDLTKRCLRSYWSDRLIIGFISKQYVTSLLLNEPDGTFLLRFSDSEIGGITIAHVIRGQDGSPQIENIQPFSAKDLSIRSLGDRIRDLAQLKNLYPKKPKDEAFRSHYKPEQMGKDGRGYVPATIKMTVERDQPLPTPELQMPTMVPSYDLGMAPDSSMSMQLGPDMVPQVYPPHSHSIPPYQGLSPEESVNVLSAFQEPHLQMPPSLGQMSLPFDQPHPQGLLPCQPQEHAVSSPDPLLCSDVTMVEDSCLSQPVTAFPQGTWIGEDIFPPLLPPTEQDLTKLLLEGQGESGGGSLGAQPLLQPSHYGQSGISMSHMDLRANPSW

Row | Molecule | IL-4 induced luciferase reporter gene expression (multimerized STAT6 response elements) in HepG2 cells [1] [fold] | Extinction 493 nm [2]
1 | NCoA-1 (nuclear coactivator 1), full length (from UniProt P70365 2-1447) | < 3 | –
2 | B1 | – | 0.795
